The results in this text go back to PMC12607630, “ZapC crosslinks FtsZ filaments through a dual-binding mechanism modulated by the intrinsically disordered linker of FtsZ in Escherichia coli” (mBio, 2025).

Substitutions are numbered along the chain they refer to. Names may count otherwise. “And” between values parts separate entries of the source, which are not always exact repeats. Identical values can stand only once.

The labels stand for the following.
B1: ZapC (untagged) (natural protein)
chain: not shown
notes: ZapC, Escherichia coli; also called untagged ZapC; source: E. coli, plasmid pLY28 (pE-SUMO-Amp, PT7::6×his-sumo-zapC), purified (Ni-NTA; 6×His-SUMO tag removed with Ulp1); not shown: 6×His, N-terminal, cleaved; SUMO, N-terminal, cleaved
B2: ZapC (untagged) (natural protein)
chain: not shown
notes: ZapC, FtsZ-associated protein of Escherichia coli; source: E. coli BL21(DE3), plasmid pLY28, purified (Ni-NTA); 6×His-SUMO tag removed with Ulp1; not shown: 6×His-SUMO, N-terminal, cleaved
B3: 6×His-ZapC F30D, K94D (natural protein)
chain: not shown
notes: ZapC of Escherichia coli with F30D and K94D; Derivative of pSD323 by site-directed mutagenesis; also called ZapC^F, K; -ZapCF, K; source: E. coli, plasmid pLY317 (pQE80L, Plac::6Xhis-zapC F30D, K94D), purified (Ni-NTA); not shown: His6, N-terminal, kept
B4: FtsZ^1–370 (domain or fragment, Escherichia coli, UniProt P0A9A6 1-370, looked up)
chain: MFEPMELTNDAVIKVIGVGGGGGNAVEHMVRERIEGVEFFAVNTDAQALRKTAVGQTIQIGSGITKGLGAGANPEVGRNAADEDRDALRAALEGADMVFIAAGMGGGTGTGAAPVVAEVAKDLGILTVAVVTKPFNFEGKKRMAFAEQGITELSKHVDSLITIPNDKLLKVLGRGISLLDAFGAANDVLKGAVQGIAELITRPGLMNVDFADVRTVMSEMGYAMMGSGVASGEDRAEEAAEMAISSPLLEDIDLSGARGVLVNITAGFDLRLDEFETVGNTIRAFASDNATVVIGTSLDPDMNDELRVTVVATGIGMDKRPEITLVTNKQVQQPVMDRYQQHGMAPLTQEQKPVAKVVNDNAPQTAKEPD
notes: FtsZ, Escherichia coli, residues 1-370; Plasmid construction is in the Supplemental Information; also called FtsZ lacking the CTP; source: E. coli BL21(DE3), SUMO-tag purification system, purified; not shown: 6×His, N-terminal, cleaved; SUMO, N-terminal, cleaved
B5: 6×His-SUMO-FtsZ 316-383 (domain or fragment, Escherichia coli, UniProt P0A9A6 316-383, looked up)
chain: GMDKRPEITLVTNKQVQQPVMDRYQQHGMAPLTQEQKPVAKVVNDNAPQTAKEPDYLDIPAFLRKQAD
notes: source: E. coli BL21(DE3), plasmid pLY342, purified (Ni-NTA); not shown: 6×His-SUMO, N-terminal, kept
B6: SUMO-FtsZ^316-383 (domain or fragment, Escherichia coli, UniProt P0A9A6 316-383, looked up)
chain: B5 chain
notes: Held on Ni-NTA biosensors; plasmid construction is in the Supplemental Information; also called SUMO fusion containing the CTL and CTP; source: E. coli, purified SUMO fusion; not shown: 6×His, N-terminal, kept; SUMO, N-terminal, kept
B7: FtsZ (wild-type, untagged) (natural protein, Escherichia coli, UniProt P0A9A6 1-383, looked up)
chain: MFEPMELTNDAVIKVIGVGGGGGNAVEHMVRERIEGVEFFAVNTDAQALRKTAVGQTIQIGSGITKGLGAGANPEVGRNAADEDRDALRAALEGADMVFIAAGMGGGTGTGAAPVVAEVAKDLGILTVAVVTKPFNFEGKKRMAFAEQGITELSKHVDSLITIPNDKLLKVLGRGISLLDAFGAANDVLKGAVQGIAELITRPGLMNVDFADVRTVMSEMGYAMMGSGVASGEDRAEEAAEMAISSPLLEDIDLSGARGVLVNITAGFDLRLDEFETVGNTIRAFASDNATVVIGTSLDPDMNDELRVTVVATGIGMDKRPEITLVTNKQVQQPVMDRYQQHGMAPLTQEQKPVAKVVNDNAPQTAKEPDYLDIPAFLRKQAD
notes: FtsZ, Escherichia coli; Made from the same 6×his-sumo-ftsZ plasmid as the fusion that the methods call full-length FtsZ; also called wild-type FtsZ; untagged FtsZ; source: E. coli BL21(DE3), plasmid pLY17, purified (Ni-NTA; 6×His-SUMO tag removed with Ulp1); not shown: 6×His, N-terminal, cleaved; SUMO, N-terminal, cleaved
B8: 6×His-ZapC (natural protein)
chain: not shown
notes: ZapC, Escherichia coli; also called His-tagged ZapC; source: E. coli, plasmid pSD323 (pQE80, Plac::6×His-ZapC), purified (Ni-NTA) as for FtsZ; not shown: 6×His, N-terminal, kept

Common to all, as to details: both partners purified
Experiment [1] addresses T1, SUMO-FtsZ (Escherichia coli, UniProt P0A9A6 1-383).
T1 construct: FtsZ, Escherichia coli; also called 6×His-SUMO-FtsZ; SUMO fusion containing full-length FtsZ; source: E. coli BL21(DE3), plasmid pLY17 (pE-SUMO-Amp, PT7::6×his-sumo-ftsZ), purified (Ni-NTA); not shown: 6×His, N-terminal, kept; SUMO, N-terminal, kept
T1 sequence (looked up): B7 chain
Briefly: BLI; SUMO fusions of FtsZ or its parts, or SUMO alone (0.5 µM), held on Ni-NTA biosensors; untagged ZapC in solution; Octet-Red96, 30°C, 1× Pol buffer; apparent Kd from the signal at the end of association, one-site fit. On the technique in general: BLI is a label-free optical method that tracks binding on a fibre tip over time.

Experiment [2] concerns the target T2, 6×His-SUMO-FtsZ (Escherichia coli, UniProt P0A9A6 1-383).
T2 construct: FtsZ of Escherichia coli, full length, fused behind 6×His-SUMO; Forward primer BsaI-out-F starts the FtsZ insert at codon 2; source: E. coli BL21(DE3), plasmid pLY17, purified (Ni-NTA); not shown: 6×His-SUMO, N-terminal, kept
T2 sequence (looked up): B7 chain
Briefly: BLI; 6×His-SUMO fusions of FtsZ or its parts, or SUMO alone (0.5 µM), held on Ni-NTA biosensors, untagged ZapC in solution; Octet-Red96, 30°C, 1× Pol buffer (50 mM HEPES-NaOH pH 6.8, 50 mM KCl, 10 mM MgCl2); apparent Kd from the signal at the end of association against concentration, one-site fit; three repeats with mean (X) and SD.

Experiment [3] concerns the target T3, FtsZ (untagged, wild type) (Escherichia coli, UniProt P0A9A6 1-383).
T3 construct: also called wild-type FtsZ; source: E. coli BL21(DE3), plasmid pLY17, purified (Ni-NTA); 6×His-SUMO tag removed with Ulp1; not shown: 6×His-SUMO, N-terminal, cleaved
T3 sequence (looked up): B7 chain
Nature of the experiment: BLI; 6×His-ZapC or its mutants (0.5 µM) loaded on Ni-NTA biosensors, untagged FtsZ or its variants in solution; Octet-Red96, 30°C, 1× Pol buffer (50 mM HEPES-NaOH pH 6.8, 50 mM KCl, 10 mM MgCl2); apparent Kd from the signal at the end of association against concentration, one-site fit; three repeats with mean (X) and SD.

The target of experiment [4] is B8. Nature of the experiment: BLI; 6×His-ZapC or its mutants (0.5 µM) loaded on Ni-NTA biosensors; FtsZ or its variants in solution; Octet-Red96, 30°C, 1× Pol buffer (50 mM HEPES-NaOH pH 6.8, 50 mM KCl, 10 mM MgCl2); apparent Kd from the signal at the end of association, one-site fit.
The target in experiment [5] is B2. Briefly: BLI; 6×His-SUMO fusions of FtsZ or its parts, or SUMO alone (0.5 µM), held on Ni-NTA biosensors, untagged ZapC in solution; Octet-Red96, 30°C, 1× Pol buffer (50 mM HEPES-NaOH pH 6.8, 50 mM KCl, 10 mM MgCl2); apparent Kd from the signal at the end of association against concentration, one-site fit; three repeats with mean (X) and SD.
Experiment [6] has as its target B1. Briefly: BLI; SUMO fusions of FtsZ or its parts, or SUMO alone (0.5 µM), held on Ni-NTA biosensors; untagged ZapC in solution; Octet-Red96, 30°C, 1× Pol buffer; apparent Kd from the signal at the end of association, one-site fit.
Experiment [7] deals with T4, 6×His-ZapC double mutant (F30D, K94D) (Escherichia coli, UniProt P75862 1-180, F30D | K94D).
T4 construct: ZapC, Escherichia coli; The text calls it only 'the double mutant' after naming ZapC^F30D and ZapC^K94D; also called the double mutant; source: E. coli, derivative of pSD323, purified (Ni-NTA) as for FtsZ; not shown: 6×His, N-terminal, kept
Briefly: BLI; 6×His-ZapC or its mutants (0.5 µM) loaded on Ni-NTA biosensors; FtsZ or its variants in solution; Octet-Red96, 30°C, 1× Pol buffer (50 mM HEPES-NaOH pH 6.8, 50 mM KCl, 10 mM MgCl2); apparent Kd from the signal at the end of association, one-site fit.

In experiment [8] the target is B7. Described as above.
Experiment [9] has as its target T5, FtsZ^F285S (untagged) (Escherichia coli, UniProt P0A9A6 1-383, F285S).
T5 construct: FtsZ, Escherichia coli; source: E. coli BL21(DE3), derivative of pLY17, purified (Ni-NTA; 6×His-SUMO tag removed with Ulp1); not shown: 6×His, N-terminal, cleaved; SUMO, N-terminal, cleaved
T5 sequence (looked up): B7 chain with F285S
Described as above.

Regarding B1, the Kd in [1] was determined as 1.5 µM.
As to B2, the Kd in experiment [2] was 1.5 µM and 1.28 µM and 1.9 µM and 1.56 µM.
Consider B3, for which the Kd in [3] was 6.39 µM and 5.16 µM and 4.77 µM and 5.44 µM.
Regarding B4, in [4], the “fold decrease of affinity against wild-type FtsZ” value is around 3 fold.
B5: the Kd in experiment [5] was 11.2 µM and 10.4 µM and 8.11 µM and 9.89 µM.
Regarding B6, the Kd in experiment [6] turned out to be 10 µM.
As for B7, the “fold increase of Kd against wild-type ZapC” value in experiment [7] came out at 12 fold.
Consider B8, for which the Kd in experiment [8] came out at 0.39 µM; in experiment [9] it was 6.37 µM.
